The text below walks through data of the DeepSol protein solubility set.

A short description of the data set: soluble on expression in E. coli; label from the status in PepcDB or PDB records.
As for “MLSGDLAEFPFPSLVGALMSAGRTGRLHLRPPFLEAEVYLRGGQVVHAKAQAGERALEGEEALDLLVGLRRAPFVFEPEALPPHTTLLGGLEVPARLAQAQAAWEKVKLPADWGLRLRLPREGSAVELPPEALGLLARVEGKRIAEVLLAPGVLRQARVLSTLLEVGALEAYPEVDLPPEPLVVLPIYGPGSGVAYVDEALYAQWARAIRRGFRVRLLPLGAVLEVRPRPNLQGRVGLMEEDLKRLRLRRGDKVEAVPKV”, the “soluble on expression in E. coli” value is “soluble”. To “MLYALLLLFGGVSTVSSLRVAVVGEGVIGLSTATAILDLAEKRNIPAPEIHIFHHKPFEKILSRHIAGLFRIDSGSEIDRKYGYDTFEKLATLWREYGGLSGVQLVSGHILSDSKTKLDSQRESYGSLVYNYRDLAEPELFGPTSLFDLPRNTTTRGIHYTAYTSEGLRFCPFLKKELMTKGVRFTQRRIGNLEELGAEFDVVVNSAGLLGGVLAGDDAGNMKPIRGVLIRVDAPWQKHFLYRDFSTITIPVIDHVYMGTVKQEGAFGPNNVTSADIQDITSRYVALQPSFKRVHMLSSFVGYRPGRKQVRVEKQIRETNGSKKFTVVHNYGHSGNGFTLGYGSAVHAAHIVLDLPLDAYHGLVPEPLPINATISEWVKYLDD” belongs “not soluble”; to “MGSDKIHHHHHHMSWPLDDETASPHFSIRCLEEPMLINADFSRRAIVTPHEYQWVASPQGGVERVMLDRVGAEKARATSIVRYAPGSHFPRHQHPAGEEILVLSGTFSDEGGHYPAGWYLRNPPGSCHQPSSREGAMIFVKLRQMPLHEARRVRVDTRDPAAWRRQNGREVCPLFADDAEQVCLHRMAPNDALVAAQGDGAELLVLTGAVVAEGEIYGRGSWIRVPADDSLHVVAASQGATVYLKTGLPVAIGAEV”, “not soluble”; to “PATDASVLLVQLSDSHLFAEDGARLLGMDTAHSLEKVVERVAREQPRIDLILATGDVSQDGSLDSYTRFRRLSAPLDAPLRWFAGNHDEREPMQRATEGSDLLEQVVDVGNWRVVLLDSSIPGAVPGYLEEDQLELLRRAIDSAGERFLLVSFHHHPVPIGSDWMDPIGLRNPQALFDLLAPYPQVRCLLWGHIHQEFDRQRGPLRLLASPSTCVQFAPGSSDFTLDRLAPGYRWLRLHDDGRLETGISRVDDVVF”, “not soluble”. As to “MNVTEITQLARDIRVATLKSLNHLGFGHYGGSMSVVETLAVLYGAVMKIDPADPDWPERDYFVLSKGHAGPALYSTLAIKGYFPREELNTLNQNGTRLPSHPDRLKTRGVDATTGSLGQGISIAGGMALSHKLARRPNRVFCIVGDGELNEGQCWEAFQFIAHHRLNNLTVFIDWNKQQLDGELEEIINPFDLEGKFRAFGFDVVTVKGDDIAGLLAVVQPVPPADAQPRVVILDSIKGQGVPCLEQLTNSHHLRLTDGMKQTLNEAIHQLEVMHD”, the “soluble on expression in E. coli” value is on record as “not soluble”.

On to “MSLVDFIDDNRGEFGVEPICTVLRSAGLQVALSTYYDAKARVPSARALRDAVLGPALCQLWKDNYCVYGARKLWKTARRDGHDVGRDQVARLMRAAGIEGVRRGKRVRTTKADPAAARHPDLVHRNFAAAAPNQLWATDLTFVPTWAGVAYVCFIIDAHSRMIVGWRVASHMRTSMVLDALEMARWSRGTTLQDLICHSDAGSQFTSIRYGERLAEIGAVPSIGTVGDSFDNALAETVNGYYKAELIYGPARSRPWKTVEDVELATLSWVHWHNTSRLHSYLGDIPPTEFEAAFYDAYRTDQPLIGIQEGHHHHHH”, for which the “soluble on expression in E. coli” value is recorded as “not soluble”. Take “MDYLTTNKIAWDARTRVHLTSDFYDVEGFLSGKISLTEIELNELAVAGKSLLHLQCHFGLDTLSWARMGAKVTGVDLSEVAIAEACKLAQQTQLSAEFICSDVYSVVGKVEPQDIVFTSYGAIVWLPDLTLWAQTIAACLKPGGQFYMAEFHPAQQLFDGYSYFNRGEPDIEQEGTYTENASDDQQTLMCWSHSLSEVINALLQAGLELVFFHEFAFSPYNCFEGLEAQADGRYVLIHQGQQVPLVYSISARKPVLEHHHHHH”: the “soluble on expression in E. coli” value is “soluble”. Consider “MTDQPISLEEIRLRLNELDDQLLSLLSERRKLSIEVAKSKVQTSKPVRDAVREQQLLVKLISNGRDKYELDAQYITKLFHTIIEDSVLLQQGYLQNLVNPQQSRKPLARVAFLGAKGSYSHLASREYFSRKNTELIELNCEHFKEVTRTVESGHADYGVLPIENTSSGSINEVYDLLQHTTLYIVGELTQPIEHCLVATKDIRLEDIKTLYSHPQPHQQCSEFLSRMKGVKLESCASTADAMQKVQEMNRDDVAAIGNASSGKLYGLQAIQGNIANQTENHTRFIVVARKPVEVSTQIPAKTTLIMSTSQEAGSLVETLLVLQRYGINMTKLESRPIMGNPWEEMFYVDLEAHLGSTEMQQALQELTKITKHLKVLGCYPSENIKPTQVKLS”, for which the “soluble on expression in E. coli” value is “not soluble”. To “MTIPLHTITSFRATFNPFSRSARPCRLLLSLLRNPSTTPASSPTHIDIQVTQLPRHSTQPPEMTVGFRGGKEVKIEVGKKQMKIGDVIEELARVGRSIEREETLKG” belongs “not soluble”; to “MAIDSKPHDDLQLFKTNLHPCGYWPDRWASDLVMDPNDPRLGAIYPQTLAWGFRRSGNLLYRPHCEHCNACVPVRVNVNAFVPNRSQRRCLARNATLVTRIVPAERNAEQLSLYRRYLHQRHPDGGMDGHGAIEFDQFLIGPWGYGRFMEIREPATNGTPGQLLAVAVTDLTHQALSAVYTFYEPNAAARGLGTLAILHQIHWAQREQRPYLYLGYWIKDHFKMDYKRRFQKLEIYDGYRWRPFSTTYPTTHTLLEHHHHHH”, “soluble”. As to “SMSETFDVELTKNVQGLGITIAGYIGDKKLEPSGIFVKSITKSSAVEHDGRIQIGDQIIAVDGTNLQGFTNQQAVEVLRHTGQTVLLTLMRRGETSV”, the “soluble on expression in E. coli” value is “soluble”.

For “MEALVVVHKVASEGGRRPKTTVSDESGSHSREKGKSFQVKDSPENNYATGKVDSLERSHFSSSYNQERRQSEEQRR”, the “soluble on expression in E. coli” value is reported as “soluble”. Next, “MNACVSVVCYKSKTLSNGENPLMLQVSKGGKRKYQSLGISINPKYWDFTRNKPKPNCPNKEYIQKIILDKQRELQQRMLELNSEQKEYTTTTLLNNENTKFELKTVSMFYKELIEQYTREDKCGNRLIYKGSFNSLKVFTNGKLDIPFNEIDIAWLNKYEKWLRSKGNRETTISLLFRTLRSAYNKAIKAKCARKSDYPFDDYKINKFDTTTQKRAIAKTDVLKFTTEVQPIGKQQYMELSKDIFVFSYLCGGINFTDIANLTNENIQNGRLHYIRQKTKKPIKIGIPQEAMQIIEKYSKESKG”: “not soluble”; “MGSDKIHHHHHHACSLQQYQTKIVANNNYGIYQSLTRKGPVRQMGVTGTFKYSHFQASSVKKIKHNTYWYVLINGHKAGWVNQSAFARNKISVAKRVSLVKNPYYDFNVKDAINYVTDSSGSVVDLDKVHVSQNTVSSAKAGIHNITYTYGKGKAHSLIRVRNDQYEGIVNANKKPQMGKSGVTWFKHFKTSGNWGKGSSYAPETKPHVLKNGNFKLKTVFYQPATLSQGDSKLGVVGPLPEGLAVSDGRMYATMYDRPTRTHAHIVSYQLNQIPNRYVMQKLPWLPWPEFARLSATIKVSPLIKLGHGQAISTSKKYIYVIANNHLLRNNPESEEIMQISKNDLQIKKIWTFKIWDQKSEYGRYVHNAVFLNDHKFIAVYHSSTMNRFEYWEVTRHGNSWYPKEIGATKGEFMRNNSPVQGIAYDKHKKQIYLAFNDYLFKLNRKGRVIENGHFNTGREFEGICVDNKTFYAELAQRPELLKQKLK”: “not soluble”; “MTAVETKKQYLTVFKEDGIAEIHLHINKSNSYDLEFYKEFNAAIDDIRFDPDIKVVIVMSDVPKFFSAGADINFLRSADPRFKTQFCLFCNETLDKIARSPQVYIACLEGHTVGGGLEMALACDLRFMGDEAGKIGLPEVSLGVLAGTGGTQRLARLIGYSRALDMNITGETITPQEALEIGLVNRVFPQAETRERTREYARKLANSATYAVSNIKLAIMNGKEMPLNVAIRYEGELQNLLFRSEDAKEGLSAFLEKRQPNWKGI”: “soluble”. Consider “SMTTTTTTISQHNFYGAGDSETCISIIENLKEEYGLFVWPCSVILAEYVWQHRSRFRDSSILELGAGTSLPGLVAAKVGANVTLTDDATKPEVLDNMRRVCELNKLNCNVLGLTWGVWDAPILDLRPNIILGADVLYDSSGSFHLFLFWVLAFSFSPCE”, for which the “soluble on expression in E. coli” value is “soluble”.
